Assay [1] deals with HDAC7 catalytic domain (residues 449–952) (human) (UniProt Q8WUI4). The assay can be described thus: ITC; HDAC7 at 50 µM in the cell, 25 °C; 26 injections of 1.5 µl of SMRT(1255–1452) wild type or alanine mutant at 300 µM; 50 mM KH2PO4/K2HPO4 pH 6.5, 100 mM KCl, 1 mM DTT, 1 mM β-ME; Kd values approximate (noise, aggregation of HDAC7).
Assay [2] addresses HDAC7 catalytic domain (residues 449–952), wild type, purified (human) (UniProt Q8WUI4). Kind of assay: ITC; ITC200, HDAC7 50 µM in the cell, SMRT(1255–1452) wild type or alanine mutants 300 µM injected; 50 mM KH2PO4/K2HPO4 pH 6.5, 100 mM KCl, 1 mM DTT, 1 mM β-ME; 25 °C; hampered by precipitation of HDAC7. In general terms: In ITC the heat of successive injections is recorded.
Assay [3] addresses GST-SMRT (1358–1391) R1381A (human). The assay can be described thus: pull-down; purified GST-peptide or GST control on glutathione sepharose beads, incubated 2 h at 4 °C with supernatant of an E. coli HDAC7 expression lysate; washes with PBS pH 7.3, 3 mM DTT, 0.05% Tween 20, 500 mM NaCl; anti-His western blot.
Assay [4] has as its target SMRT(1255-1452) (human) (UniProt Q9Y618). The assay can be described thus: NMR titration; 15N-labelled SMRT(1255-1452) with 0.72, 2.2 and 3.8 molar equivalents of unlabelled wt-HDAC7; relative HSQC peak intensities fitted to a bimolecular binding equation; 25 °C, 50 mM potassium phosphate pH 6.5, 100 mM KCl, 1 mM DTT; rough estimates, HDAC7 precipitated.
Assay [5] has the same target. The assay can be described thus: SPR; Biacore 3000, SMRT(1255–1452) amine-coupled to a CM5 chip (5500 RU), HDAC7 injected at 500 nM to 8 µM; 50 mM KH2PO4/K2HPO4 pH 6.5, 100 mM KCl, 1 mM DTT; two-step (three-state) model, overall apparent Kd. In general terms: In SPR one partner is held on a chip, and binding of the other changes the refractive index at the surface.
For assay [6] the target is unchanged. The assay can be described thus: MST; Monolith NT.115, SMRT(1255–1452) labelled with NT647, HDAC7 or HDAC7 C535A/H541A 20 nM to 20 µM; 25 mM Tris pH 8.0, 10 mM MgCl2, 150 mM KCl, 0.5% Tween-20; room temperature.
The target is the same in assay [7]. Kind of assay: NMR titration; 15N-1H HSQC of labelled SMRT(1255–1452) titrated with unlabeled HDAC7 (1:0.72, 1:2.2, 1:3.8) or mixed with HDAC7 C535A/H541A (40 µM:144 µM, 1:3.6); peak intensities; 50 mM potassium phosphate, 100 mM KCl, 1 mM DTT, pH 6.5, 25 °C.

In assay [1], “SMRT(1255-1452) E1376A (from UniProt Q9Y618 1255-1452) (domain or fragment)” yielded a Kd of 34 µM.

In turn, “SMRT(1255-1452) R1381A (from UniProt Q9Y618 1255-1452) (domain or fragment)” had a Kd in assay [1] of 55 µM.

In turn, “SMRT(1255-1452) V1372A (from UniProt Q9Y618 1255-1452) (domain or fragment)” had a Kd in assay [1] of 37 µM.

In assay [1], “SMRT(1255-1452) R1360A (from UniProt Q9Y618 1255-1452) (domain or fragment)” showed a Kd of 19 µM.

For the molecule “SMRT(1255-1452) L1386A (from UniProt Q9Y618 1255-1452) (domain or fragment)”, in assay [1], the Kd was found to be 28 µM.

As to “SMRT(1255-1452) K1384A (from UniProt Q9Y618 1255-1452) (domain or fragment)”, the Kd in assay [1] turned out to be 43 µM.

In assay [1], “SMRT(1255-1452) L1379A (from UniProt Q9Y618 1255-1452) (domain or fragment)” had a Kd of 7.5 µM.

In the case of “SMRT(1255–1452) (from UniProt Q9Y618 1255-1452) (domain or fragment)”, the Kd in assay [2] stood at 14.1 µM.

The molecule “SMRT(1255–1452) R1381A (from UniProt Q9Y618 1255-1452) (domain or fragment)” displayed a fold reduction of affinity against wild-type SMRT(1255–1452) in assay [2] of 4 fold.

B1: HDAC7 (residues 449–952), wild type, hexahistidine-tagged, in E. coli expression lysate (domain or fragment)
chain: LLWEQQRLAGRLPRGSTGDTVLLPLAQGGHRPLSRAQSSPAAPASLSAPEPASQARVLSSSETPARTLPFTTGLIYDSVMLKHQCSCGDNSRHPEHAGRIQSIWSRLQERGLRSQCECLRGRKASLEELQSVHSERHVLLYGTNPLSRLKLDNGKLAGLLAQRMFVMLPCGGVGVDTDTIWNELHSSNAARWAAGSVTDLAFKVASRELKNGFAVVRPPGHHADHSTAMGFCFFNSVAIACRQLQQQSKASKILIVDWDVHHGNGTQQTFYQDPSVLYISLHRHDDGNFFPGSGAVDEVGAGSGEGFNVNVAWAGGLDPPMGDPEYLAAFRIVVMPIAREFSPDLVLVSAGFDAAEGHPAPLGGYHVSAKCFGYMTQQLMNLAGGAVVLALEGGHDLTAICDASEACVAALLGNRVDPLSEEGWKQKPNLNAIRSLEAVIRVHSKYWGCMQRLASCPDSWVPRVPGADKEEVEAVTALASLSVGILAEDRPSEQLVEEEEPMNL
In the case of B1, the fold reduction of binding against wild-type GST-SMRT (1358–1391) in assay [3] was found to be 4 fold.

B2: HDAC7 catalytic domain (residues 449–952) (domain or fragment)
chain: LLWEQQRLAGRLPRGSTGDTVLLPLAQGGHRPLSRAQSSPAAPASLSAPEPASQARVLSSSETPARTLPFTTGLIYDSVMLKHQCSCGDNSRHPEHAGRIQSIWSRLQERGLRSQCECLRGRKASLEELQSVHSERHVLLYGTNPLSRLKLDNGKLAGLLAQRMFVMLPCGGVGVDTDTIWNELHSSNAARWAAGSVTDLAFKVASRELKNGFAVVRPPGHHADHSTAMGFCFFNSVAIACRQLQQQSKASKILIVDWDVHHGNGTQQTFYQDPSVLYISLHRHDDGNFFPGSGAVDEVGAGSGEGFNVNVAWAGGLDPPMGDPEYLAAFRIVVMPIAREFSPDLVLVSAGFDAAEGHPAPLGGYHVSAKCFGYMTQQLMNLAGGAVVLALEGGHDLTAICDASEACVAALLGNRVDPLSEEGWKQKPNLNAIRSLEAVIRVHSKYWGCMQRLASCPDSWVPRVPGADKEEVEAVTALASLSVGILAEDRPSEQLVEEEEPMNL
As for B2, in the assay with SMRT(1255-1452) (human) [4], the Kd was 19 µM.

B3: HDAC7 catalytic domain (residues 449–952), wild type, purified (domain or fragment)
chain: LLWEQQRLAGRLPRGSTGDTVLLPLAQGGHRPLSRAQSSPAAPASLSAPEPASQARVLSSSETPARTLPFTTGLIYDSVMLKHQCSCGDNSRHPEHAGRIQSIWSRLQERGLRSQCECLRGRKASLEELQSVHSERHVLLYGTNPLSRLKLDNGKLAGLLAQRMFVMLPCGGVGVDTDTIWNELHSSNAARWAAGSVTDLAFKVASRELKNGFAVVRPPGHHADHSTAMGFCFFNSVAIACRQLQQQSKASKILIVDWDVHHGNGTQQTFYQDPSVLYISLHRHDDGNFFPGSGAVDEVGAGSGEGFNVNVAWAGGLDPPMGDPEYLAAFRIVVMPIAREFSPDLVLVSAGFDAAEGHPAPLGGYHVSAKCFGYMTQQLMNLAGGAVVLALEGGHDLTAICDASEACVAALLGNRVDPLSEEGWKQKPNLNAIRSLEAVIRVHSKYWGCMQRLASCPDSWVPRVPGADKEEVEAVTALASLSVGILAEDRPSEQLVEEEEPMNL
For the molecule B3, the Kd with SMRT(1255-1452) (human) [5] was 2.1 µM; in the assay with SMRT(1255-1452) (human) [6] it was 2.8 µM; with SMRT(1255-1452) (human) [7], < 40 µM.

Source of the values: paper PMC5473869.
